One molecule from patent US20240343823A1 (Ablynx, published 2024) can be followed below.

One may read the EC50 as the concentration that produces a half-maximal response. A low value points to higher potency in that assay. By Kd is commonly meant a measure of binding affinity in units of concentration. High values mean lower affinity, low ones higher affinity.

The target of assay [1] is human GPC3 on tumor cell lines (HepG2, Huh-7, NCI-H661, MKN-45, NCI-H23, BxPC-3, NCI-H292) (human, UniProt P51654 25-554). Put plainly: cell-based or functional assay.
Assay [2] addresses T1, human Glypican-5 (R&D systems, cat no 2607-G5) (human, UniProt P78333 25-553, limits assumed).
T1 construct: Bought; also called GPC5
T1 sequence (looked up): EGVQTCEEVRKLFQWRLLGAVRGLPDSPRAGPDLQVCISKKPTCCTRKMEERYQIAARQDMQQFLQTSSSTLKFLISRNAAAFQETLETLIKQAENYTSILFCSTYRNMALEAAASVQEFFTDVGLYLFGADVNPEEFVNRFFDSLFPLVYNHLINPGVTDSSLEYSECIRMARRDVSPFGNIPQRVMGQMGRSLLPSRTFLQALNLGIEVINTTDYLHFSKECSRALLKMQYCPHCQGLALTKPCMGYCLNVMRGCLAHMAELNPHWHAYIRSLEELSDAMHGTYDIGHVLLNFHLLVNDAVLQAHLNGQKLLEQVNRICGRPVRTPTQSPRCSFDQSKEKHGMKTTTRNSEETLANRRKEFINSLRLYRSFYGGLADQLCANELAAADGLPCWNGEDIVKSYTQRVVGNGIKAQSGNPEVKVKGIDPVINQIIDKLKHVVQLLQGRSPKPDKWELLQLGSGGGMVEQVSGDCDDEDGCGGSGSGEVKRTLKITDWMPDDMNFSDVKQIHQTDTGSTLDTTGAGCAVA
In words: ELISA, Glypican-5 coated at 2 ug/mL. How it is done: Human GPC1 (R&D systems, cat no 4519-GP), human GPC2 (R&D systems, cat no 2304-GP), human GPC3 (R&D systems, cat no 2119-GP), human Glypican-5 (R&D systems, cat no 2607-G5) and human Glypican-6 (R&D systems, cat no 2845-GP) were directly coated overnight at 4° C. (2 μg/mL, 1×PBS buffer) on a 384-well HB SpectraPlate (PerkinElmer). The following day the plate was washed 6 times (AquaMax microplate washer, Molecular devices) and blocked with 1×PBS+1% Casein for 2 hours at room temperature. […] After 6 final wash steps the es(HS)TMB substrate (SDT) was added and the reaction stopped by addition of 1 M HCl after 10 minutes. The absorbance of the plate was measured at wavelengths 450 and 620 nm on the Clariostar instrument (BMG LABTECH) and the OD₄₅₀-OD₆₂₀ calculated and plotted for data analysis.
Background: ELISA stands for enzyme-linked immunosorbent assay.

For assay [3], the target named is T2, human GPC3 expressed on CHO Flp-In cells (human, UniProt P51654 25-554).
T2 construct: On cells; Q25-R358, S359-H580; also called hGPC3 CHO; CHO huGPC3
Put plainly: flow cytometry on CHO Flp-In human GPC3 cells.

Assay [4] addresses T3, human serum albumin (Sigma cat no A8763) (human, UniProt P02768 25-609).
T3 construct: also called HSA
In words: SPR ProteOn XPR36, serum albumin immobilized by amine coupling, 1:1 model. How it is done:
(§1) Serum albumin proteins were immobilized on a GLC Sensor Chip (Biorad) via amine coupling, using EDC and NHS chemistry (running buffer: HBS-EP+, pH 7.4). Purified ISVDs were injected for 2 minutes (flow rate 45 μL/min) at different concentrations (between 0.24 nM and 500 nM) and dissociation was followed for 900 s. Regeneration was performed by injecting 10 mM Glycine-HCl (pH 1.5) for 47 seconds (flow rate 100 μL/min). Data was double referenced by subtracting a reference ligand lane and a blank buffer injection. Processed sensorgrams were analyzed based on the 1:1 interaction model (Langmuir binding model) using ProteOn Manager 3.1.0 (Version 3.1.0.6) software.

Assay [5] deals with T4, cyno serum albumin (in house produced from animal tissue) (cynomolgus).
T4 construct: also called cynomolgus serum albumin
The description is as above. Here is the method:
as §1

For assay [6], the target named is mouse serum albumin (DivBioScience cat no IMSA) (mouse, UniProt P07724 25-608). The description is as above. How it is done:
as §1

The target in assay [7] is T5, cyno GPC3 expressed on CHO Flp-In cells (cynomolgus).
T5 construct: range 3-559; On cells; also called cyGPC3 CHO; CHO-cGPC3
Put plainly: flow cytometry on cells expressing GPC3; lower end tied by Table 21 to CHO cyno GPC3. (In general: Flow cytometry measures light scatter and fluorescence of single cells or particles in a stream.)

In assay [8] the target is T2, human GPC3 expressed on CHO Flp-In cells. Put plainly: flow cytometry on cells expressing GPC3; upper end tied by Table 21 to CHO human GPC3.

mouse serum albumin (DivBioScience cat no IMSA), sequence (P07724 25-608 limits assumed): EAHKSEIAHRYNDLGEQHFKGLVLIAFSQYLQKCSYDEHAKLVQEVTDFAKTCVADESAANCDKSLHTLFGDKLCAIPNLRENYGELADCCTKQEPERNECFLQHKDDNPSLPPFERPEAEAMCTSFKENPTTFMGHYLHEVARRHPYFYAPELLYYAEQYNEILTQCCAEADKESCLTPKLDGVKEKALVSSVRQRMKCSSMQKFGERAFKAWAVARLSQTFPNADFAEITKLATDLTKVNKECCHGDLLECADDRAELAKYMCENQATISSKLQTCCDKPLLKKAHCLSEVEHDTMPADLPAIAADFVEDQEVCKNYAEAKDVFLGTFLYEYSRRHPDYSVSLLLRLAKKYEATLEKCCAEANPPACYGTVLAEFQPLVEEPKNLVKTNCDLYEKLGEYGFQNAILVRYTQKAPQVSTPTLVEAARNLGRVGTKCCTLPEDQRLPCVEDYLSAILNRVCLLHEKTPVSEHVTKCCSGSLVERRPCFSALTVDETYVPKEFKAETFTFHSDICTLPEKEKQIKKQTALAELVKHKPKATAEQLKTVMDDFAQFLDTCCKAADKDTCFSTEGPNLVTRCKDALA
T4 sequence (A2V9Z4 25-608): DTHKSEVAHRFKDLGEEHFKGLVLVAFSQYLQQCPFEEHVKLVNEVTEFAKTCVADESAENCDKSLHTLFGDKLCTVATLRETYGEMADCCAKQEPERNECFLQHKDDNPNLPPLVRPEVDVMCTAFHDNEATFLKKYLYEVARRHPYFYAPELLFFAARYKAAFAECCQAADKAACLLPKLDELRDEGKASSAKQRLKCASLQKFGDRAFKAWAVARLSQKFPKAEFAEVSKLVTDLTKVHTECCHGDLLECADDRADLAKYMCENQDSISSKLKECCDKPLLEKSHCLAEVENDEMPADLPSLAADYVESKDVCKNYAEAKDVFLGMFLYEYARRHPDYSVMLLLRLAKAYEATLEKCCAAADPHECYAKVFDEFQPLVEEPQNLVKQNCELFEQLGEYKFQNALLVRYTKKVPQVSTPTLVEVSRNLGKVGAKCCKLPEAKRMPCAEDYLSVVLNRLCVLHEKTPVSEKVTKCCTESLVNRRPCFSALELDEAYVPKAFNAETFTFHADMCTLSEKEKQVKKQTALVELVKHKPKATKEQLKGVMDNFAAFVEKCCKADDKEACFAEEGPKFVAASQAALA

B1: A022600424 (other)
chain: DVQLVESGGGVVQPGGSLRLSCVASGYVHKINFYGWYRQAPGKEREKVAHISIGDQTDYADSAKGRFTISRDESKNTVYLQMNSLRPEDTAAYYCRALSRIWPYDYWGQGTLVTVSSGGGGSEVQLVESGGGVVQPGGSLRLSCAASGFTFSSFAMTWVRRPPGKGLEWVATITNKGVTSYADSVKGRFTISRDNAKNTLYLQMNSLRPEDTALYICANARRTGPRAPTDIGSYRGQGTLVTVSSGGGGSGGGSEVQLVESGGGVVQPGGSLRLSCAASGSIFRSVFSSSTMEWYRQAPGKKRELVARIAPGEGTYYGALYADSVKGRFTISRDNAKNTVYLQMNSLRPEDTALYYCASGVAWGQGTLVTVSSGGGGSGGGSEVQLVESGGGVVQPGGSLRLSCAASGFTFRSFGMSWVRQAPGKGPEWVSSISGSGSDTLYADSVKGRFTISRDNSKNTLYLQMNSLRPEDTALYYCTIGGSLSRSSQGTLVTVSSA
notes: Trispecific tetravalent ISVD (VHH) T-cell engager: anti-TCR, two anti-GPC3 (biparatopic), anti-albumin; also called TCE01-5GS-A022600351-9GS-A022600314-9GS-ALB23002-A
For B1, the “IC50 (M), xCELLigence TDC assay on Huh-7, Primary cy T cells” value in assay [1] was 2.29e-10 M. Besides, the “IC50 (M), xCELLigence TDC assay on Huh-7, Primary hu T cells” value in assay [1] stood at 7.59e-11 M. In addition, the binding result in assay [2] is “no binding”. Also, the values for the EC50 in assay [3], in assay [7] and in assay [8] were 1.82 nM, 1 to 2 nM and 1 to 2 nM, respectively. In addition, the dissociation constant (Kd) in assay [4] turned out to be 0.83 nM; in assay [5], 0.33 nM; in assay [6], 6.9 nM.
